In patent US20230416330A1, “Optimized GIP Peptide Analogues” (Antag Therapeutics ApS, priority 2019, published 2023):
No end group written: not given here. *: point of attachment. C16 diacid = O=C(O)CCCCCCCCCCCCCCC(=O)*

T1: human GIP receptor (human, UniProt P48546 22-466)
T1 sequence (looked up): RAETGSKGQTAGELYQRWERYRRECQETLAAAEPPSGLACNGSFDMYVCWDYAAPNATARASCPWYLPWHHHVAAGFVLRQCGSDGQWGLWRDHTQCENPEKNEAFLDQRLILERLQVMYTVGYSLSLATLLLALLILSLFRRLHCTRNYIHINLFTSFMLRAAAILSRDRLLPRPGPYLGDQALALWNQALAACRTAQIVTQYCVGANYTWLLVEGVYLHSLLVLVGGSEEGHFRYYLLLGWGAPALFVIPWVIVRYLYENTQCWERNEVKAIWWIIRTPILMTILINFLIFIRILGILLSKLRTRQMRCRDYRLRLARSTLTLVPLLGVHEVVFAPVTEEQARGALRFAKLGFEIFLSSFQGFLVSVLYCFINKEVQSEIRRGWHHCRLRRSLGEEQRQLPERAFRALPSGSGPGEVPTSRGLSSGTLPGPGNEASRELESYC


Target: T1, human GIP receptor
Assay: cell-based or functional assay

Row | Binder | nM (Kb, Gaddum assay, cAMP) [nM] | pKb (Gaddum assay, cAMP)
1 | EGTFISDYSIAMDKIK(C16 diacid)QQAFVEWLLAQKPSSGAPPPS-OH (N-terminus assumed; SMILES CC[C@H](C)[C@H](NC(=O)[C@H](CO)NC(=O)[C@H](Cc1ccc(O)cc1)NC(=O)[C@H](CC(=O)O)NC(=O)[C@H](CO)NC(=O)[C@@H](NC(=O)[C@H](Cc1ccccc1)NC(=O)[C@@H](NC(=O)CNC(=O)[C@@H](N)CCC(=O)O)[C@@H](C)O)[C@@H](C)CC)C(=O)N[C@@H](C)C(=O)N[C@@H](CCSC)C(=O)N[C@@H](CC(=O)O)C(=O)N[C@@H](CCCCN)C(=O)N[C@H](C(=O)N[C@@H](CCCCNC(=O)CCCCCCCCCCCCCCC(=O)O)C(=O)N[C@@H](CCC(N)=O)C(=O)N[C@@H](CCC(N)=O)C(=O)N[C@@H](C)C(=O)N[C@@H](Cc1ccccc1)C(=O)N[C@H](C(=O)N[C@@H](CCC(=O)O)C(=O)N[C@@H](Cc1c[nH]c2ccccc12)C(=O)N[C@@H](CC(C)C)C(=O)N[C@@H](CC(C)C)C(=O)N[C@@H](C)C(=O)N[C@@H](CCC(N)=O)C(=O)N[C@@H](CCCCN)C(=O)N1CCC[C@H]1C(=O)N[C@@H](CO)C(=O)N[C@@H](CO)C(=O)NCC(=O)N[C@@H](C)C(=O)N1CCC[C@H]1C(=O)N1CCC[C@H]1C(=O)N1CCC[C@H]1C(=O)N[C@@H](CO)C(=O)O)C(C)C)[C@@H](C)CC) [AT745] | 0.49 | 9.3
2 | EGTFISDYSIAMDKK(C16 diacid)HQQDFVEWLLAQKPSSGAPPPS-OH (N-terminus assumed; SMILES CC[C@H](C)[C@H](NC(=O)[C@H](CO)NC(=O)[C@H](Cc1ccc(O)cc1)NC(=O)[C@H](CC(=O)O)NC(=O)[C@H](CO)NC(=O)[C@@H](NC(=O)[C@H](Cc1ccccc1)NC(=O)[C@@H](NC(=O)CNC(=O)[C@@H](N)CCC(=O)O)[C@@H](C)O)[C@@H](C)CC)C(=O)N[C@@H](C)C(=O)N[C@@H](CCSC)C(=O)N[C@@H](CC(=O)O)C(=O)N[C@@H](CCCCN)C(=O)N[C@@H](CCCCNC(=O)CCCCCCCCCCCCCCC(=O)O)C(=O)N[C@@H](Cc1c[nH]cn1)C(=O)N[C@@H](CCC(N)=O)C(=O)N[C@@H](CCC(N)=O)C(=O)N[C@@H](CC(=O)O)C(=O)N[C@@H](Cc1ccccc1)C(=O)N[C@H](C(=O)N[C@@H](CCC(=O)O)C(=O)N[C@@H](Cc1c[nH]c2ccccc12)C(=O)N[C@@H](CC(C)C)C(=O)N[C@@H](CC(C)C)C(=O)N[C@@H](C)C(=O)N[C@@H](CCC(N)=O)C(=O)N[C@@H](CCCCN)C(=O)N1CCC[C@H]1C(=O)N[C@@H](CO)C(=O)N[C@@H](CO)C(=O)NCC(=O)N[C@@H](C)C(=O)N1CCC[C@H]1C(=O)N1CCC[C@H]1C(=O)N1CCC[C@H]1C(=O)N[C@@H](CO)C(=O)O)C(C)C) [AT742] | 32 | 7.5
3 | EGTFISDYSIAMDKIHQQDFVEWLLAQKPSSGAPPPSK(C16 diacid)-OH (N-terminus assumed; SMILES CC[C@H](C)[C@H](NC(=O)[C@H](CO)NC(=O)[C@H](Cc1ccc(O)cc1)NC(=O)[C@H](CC(=O)O)NC(=O)[C@H](CO)NC(=O)[C@@H](NC(=O)[C@H](Cc1ccccc1)NC(=O)[C@@H](NC(=O)CNC(=O)[C@@H](N)CCC(=O)O)[C@@H](C)O)[C@@H](C)CC)C(=O)N[C@@H](C)C(=O)N[C@@H](CCSC)C(=O)N[C@@H](CC(=O)O)C(=O)N[C@@H](CCCCN)C(=O)N[C@H](C(=O)N[C@@H](Cc1c[nH]cn1)C(=O)N[C@@H](CCC(N)=O)C(=O)N[C@@H](CCC(N)=O)C(=O)N[C@@H](CC(=O)O)C(=O)N[C@@H](Cc1ccccc1)C(=O)N[C@H](C(=O)N[C@@H](CCC(=O)O)C(=O)N[C@@H](Cc1c[nH]c2ccccc12)C(=O)N[C@@H](CC(C)C)C(=O)N[C@@H](CC(C)C)C(=O)N[C@@H](C)C(=O)N[C@@H](CCC(N)=O)C(=O)N[C@@H](CCCCN)C(=O)N1CCC[C@H]1C(=O)N[C@@H](CO)C(=O)N[C@@H](CO)C(=O)NCC(=O)N[C@@H](C)C(=O)N1CCC[C@H]1C(=O)N1CCC[C@H]1C(=O)N1CCC[C@H]1C(=O)N[C@@H](CO)C(=O)N[C@@H](CCCCNC(=O)CCCCCCCCCCCCCCC(=O)O)C(=O)O)C(C)C)[C@@H](C)CC) [AT744] | 4.8 | 8.3
4 | EGTFISDYSIAMDK(C16 diacid)IHQQDFVEWLLAQKPSSGAPPPS-OH (N-terminus assumed; SMILES CC[C@H](C)[C@H](NC(=O)[C@H](CO)NC(=O)[C@H](Cc1ccc(O)cc1)NC(=O)[C@H](CC(=O)O)NC(=O)[C@H](CO)NC(=O)[C@@H](NC(=O)[C@H](Cc1ccccc1)NC(=O)[C@@H](NC(=O)CNC(=O)[C@@H](N)CCC(=O)O)[C@@H](C)O)[C@@H](C)CC)C(=O)N[C@@H](C)C(=O)N[C@@H](CCSC)C(=O)N[C@@H](CC(=O)O)C(=O)N[C@@H](CCCCNC(=O)CCCCCCCCCCCCCCC(=O)O)C(=O)N[C@H](C(=O)N[C@@H](Cc1c[nH]cn1)C(=O)N[C@@H](CCC(N)=O)C(=O)N[C@@H](CCC(N)=O)C(=O)N[C@@H](CC(=O)O)C(=O)N[C@@H](Cc1ccccc1)C(=O)N[C@H](C(=O)N[C@@H](CCC(=O)O)C(=O)N[C@@H](Cc1c[nH]c2ccccc12)C(=O)N[C@@H](CC(C)C)C(=O)N[C@@H](CC(C)C)C(=O)N[C@@H](C)C(=O)N[C@@H](CCC(N)=O)C(=O)N[C@@H](CCCCN)C(=O)N1CCC[C@H]1C(=O)N[C@@H](CO)C(=O)N[C@@H](CO)C(=O)NCC(=O)N[C@@H](C)C(=O)N1CCC[C@H]1C(=O)N1CCC[C@H]1C(=O)N1CCC[C@H]1C(=O)N[C@@H](CO)C(=O)O)C(C)C)[C@@H](C)CC) [AT741] | 11 | 7.9
5 | EGTFISDYAIAMDKIK(C16 diacid)QQDFVEWLLAQKPSSGAPPPS-OH (N-terminus assumed; SMILES CC[C@H](C)[C@H](NC(=O)[C@H](C)NC(=O)[C@H](Cc1ccc(O)cc1)NC(=O)[C@H](CC(=O)O)NC(=O)[C@H](CO)NC(=O)[C@@H](NC(=O)[C@H](Cc1ccccc1)NC(=O)[C@@H](NC(=O)CNC(=O)[C@@H](N)CCC(=O)O)[C@@H](C)O)[C@@H](C)CC)C(=O)N[C@@H](C)C(=O)N[C@@H](CCSC)C(=O)N[C@@H](CC(=O)O)C(=O)N[C@@H](CCCCN)C(=O)N[C@H](C(=O)N[C@@H](CCCCNC(=O)CCCCCCCCCCCCCCC(=O)O)C(=O)N[C@@H](CCC(N)=O)C(=O)N[C@@H](CCC(N)=O)C(=O)N[C@@H](CC(=O)O)C(=O)N[C@@H](Cc1ccccc1)C(=O)N[C@H](C(=O)N[C@@H](CCC(=O)O)C(=O)N[C@@H](Cc1c[nH]c2ccccc12)C(=O)N[C@@H](CC(C)C)C(=O)N[C@@H](CC(C)C)C(=O)N[C@@H](C)C(=O)N[C@@H](CCC(N)=O)C(=O)N[C@@H](CCCCN)C(=O)N1CCC[C@H]1C(=O)N[C@@H](CO)C(=O)N[C@@H](CO)C(=O)NCC(=O)N[C@@H](C)C(=O)N1CCC[C@H]1C(=O)N1CCC[C@H]1C(=O)N1CCC[C@H]1C(=O)N[C@@H](CO)C(=O)O)C(C)C)[C@@H](C)CC) [AT746] | 0.97 | 9
